Molecular target: Fn-TF:Factor VIIa complex (UniProt P08709)
Sequence (chain, as listed by the source, chain 1 of 2): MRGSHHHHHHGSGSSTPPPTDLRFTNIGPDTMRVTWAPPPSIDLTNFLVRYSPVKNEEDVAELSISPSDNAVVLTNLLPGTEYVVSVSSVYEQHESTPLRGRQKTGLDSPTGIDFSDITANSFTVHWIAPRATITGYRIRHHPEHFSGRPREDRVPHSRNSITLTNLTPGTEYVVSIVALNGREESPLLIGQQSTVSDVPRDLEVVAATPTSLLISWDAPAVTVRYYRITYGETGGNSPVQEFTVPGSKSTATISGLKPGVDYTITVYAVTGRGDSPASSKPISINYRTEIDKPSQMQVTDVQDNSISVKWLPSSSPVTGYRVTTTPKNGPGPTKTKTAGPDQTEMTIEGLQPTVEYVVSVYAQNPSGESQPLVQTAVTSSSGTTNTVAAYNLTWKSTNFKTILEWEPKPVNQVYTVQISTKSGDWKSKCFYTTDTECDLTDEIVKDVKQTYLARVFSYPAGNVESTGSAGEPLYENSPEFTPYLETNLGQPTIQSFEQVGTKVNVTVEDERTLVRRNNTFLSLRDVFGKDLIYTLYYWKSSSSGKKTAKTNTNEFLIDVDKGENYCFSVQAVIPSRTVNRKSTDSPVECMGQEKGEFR
Sequence (P08709 61-466, chain 2 of 2): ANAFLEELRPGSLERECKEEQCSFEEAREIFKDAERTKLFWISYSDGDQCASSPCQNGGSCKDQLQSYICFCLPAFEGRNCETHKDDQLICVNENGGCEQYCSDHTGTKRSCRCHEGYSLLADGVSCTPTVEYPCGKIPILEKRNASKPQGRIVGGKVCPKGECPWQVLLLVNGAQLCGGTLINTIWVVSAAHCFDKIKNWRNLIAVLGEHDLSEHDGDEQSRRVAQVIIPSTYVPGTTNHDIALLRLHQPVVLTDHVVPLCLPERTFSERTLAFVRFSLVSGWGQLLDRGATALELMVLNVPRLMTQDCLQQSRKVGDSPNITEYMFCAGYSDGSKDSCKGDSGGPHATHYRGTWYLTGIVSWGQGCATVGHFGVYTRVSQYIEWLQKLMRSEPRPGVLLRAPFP

Sequence of Factor X (chain): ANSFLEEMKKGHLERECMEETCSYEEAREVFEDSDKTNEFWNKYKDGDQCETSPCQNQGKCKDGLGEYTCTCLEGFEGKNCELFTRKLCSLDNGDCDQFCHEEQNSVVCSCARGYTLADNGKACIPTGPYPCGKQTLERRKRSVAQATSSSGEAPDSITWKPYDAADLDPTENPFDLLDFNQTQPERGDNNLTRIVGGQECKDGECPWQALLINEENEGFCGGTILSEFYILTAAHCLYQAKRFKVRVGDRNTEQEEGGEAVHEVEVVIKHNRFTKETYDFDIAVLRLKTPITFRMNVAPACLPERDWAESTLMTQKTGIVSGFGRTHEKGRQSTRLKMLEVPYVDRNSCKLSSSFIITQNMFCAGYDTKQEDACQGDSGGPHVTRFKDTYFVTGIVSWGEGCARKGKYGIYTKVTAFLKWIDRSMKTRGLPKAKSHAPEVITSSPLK

Factor X
proteolytic activity toward Factor X (Factor Xa generation, Spectrozyme FXa): The increasing concentration of Fn-TF led to increased proteolytic activity similar to the curve obtained with TF1-218

Source: patent US20030194400
